# According to the supplement of paper PMC12042874:
# ± gives the uncertainty stated by the source.
# Assay: amyloid nucleation score (Sup35N fusion, yeast selection) (log enrichment); library NNK2; higher = more nucleation; inactive = no reads after selection
# How it was run: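 Nucleation score: DiMSum log enrichment of output over input reads, centred on the mode score of non-aggregating sequences. Only sequences with at least 100 input reads were kept. Reads came from Illumina sequencing of plasmid inserts before and after 7 days of growth at 30°C without adenine and uracil, in psi-negative yeast expressing Sup35N fused to peptides of 20 random codons after 24 hours of induction with 100 μM copper sulfate.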
row,Substance,amyloid nucleation score
1,CFCWLLNSNLKGNLSRGRHL,-0.337 ± 1.1
2,RHNRC,-0.117 ± 0.79
3,YLWWMKSNY,inactive
4,YCMLCQGWDGICLPEVSAVW,0.146 ± 0.29
5,LYENRQFFCQGFGRWCMKLL,0.45 ± 0.74
6,EYVRFYLMGISWEAEKSHAL,4.23 ± 0.11
7,TELKEGLYAGIHFNTGTG,-0.457 ± 0.64
8,WSCNRNCSIFDR,-0.373 ± 0.45
9,ARTWGAAIWFMGN,4.09 ± 0.093
10,LSWAHVVICLIW,inactive
11,CSSFKSLIRLGTLNRRNRNE,3.68 ± 0.059
12,LMYKNCCWFLA,8.256 ± 0.062
13,NICIN,inactive
14,YSKNWYWCTDYARANTLYHG,-1.14 ± 1.1
15,RFLLQS,-0.39 ± 0.61
16,DGYLRYYSNLDG,0.147 ± 1.1
17,WHCVRVIQRSWCVKEGSKGC,0.118 ± 0.45
18,VTCASWYYGKISGLYACYRL,0.641 ± 0.34
19,YGFKGTSLR,-0.506 ± 0.28
20,PTSNLSWVT,1.71 ± 0.17
21,TILGSLHFNFVKCHSKCSYF,7.238 ± 0.061
22,GVSGCANVSCMCADVYPIAP,9.77 ± 0.045
23,VTGIATTS,0.44 ± 0.3
24,LSPVVRSMKDVLQCESVDDR,0.191 ± 0.5
25,QYFFNMMLMMDMLSLGGLSY,-0.063 ± 0.45

row,Substance,amyloid nucleation score
1,FNLTFNHF,6.041 ± 0.045
2,MISESF,0.403 ± 0.56
3,RNWWGLSVYNSIYWCVMSRD,4.835 ± 0.043
4,WTCDCSLKVFCNM,4.91 ± 0.056
5,LVMFKVTF,6.432 ± 0.04
6,GRTCVRRGQAE,0.909 ± 0.47
7,CKAIFFLLDPPTFIYRGSSC,0.079 ± 0.57
8,LEVYVLFTVTYAVMRMNMDG,0.302 ± 0.56
9,TNTSFQRCGLWLTMGYGRYH,-0.286 ± 0.3
10,VWYRLTDAVYKRLTFLDII,-0.416 ± 0.56
11,SNCRQSPYNNQVI,0.155 ± 1.1
12,FTPIGIIMYSFFKRTFTFVT,-1.06 ± 1.1
13,PHSRNRFLMFA,-0.488 ± 1
14,CINLTLYFMQ,9.091 ± 0.053
15,LWIYNYVIRLDFICMERILL,inactive
16,GLPPVC,0.851 ± 0.22
17,CDFLLLKLFRNVLVWLVCSG,inactive
18,LDNYCFHAASYSQHNSSTGP,0.804 ± 0.46
19,CFSSVIFAMIFVRNR,1.73 ± 0.21
20,EMYRCGWCLWMHNRLTATVR,1.86 ± 0.28
21,RMLGFD,-0.147 ± 1.1
22,MDGVMRTRFFLDSDVFYSSH,3.69 ± 0.046
23,QNMNLVHEIGMNRSLVFTFW,-0.167 ± 0.29
24,FCKFMSCESRPCNIMKCWGV,0.276 ± 0.6
25,MGLPSIF,5.89 ± 0.092

row,Substance,amyloid nucleation score
1,VEFLWGFWWYKPQRKSVGST,-1.54 ± 0.75
2,ARWWMSSKRR,0.026 ± 0.65
3,EGQSGAILGLMRGTSWVESA,0.984 ± 0.32
4,VYTVVYGYNWISCDHFSWDT,7.47 ± 0.08
5,VPKVKNLDWSSELAKFKLEV,2.95 ± 0.1
6,HFGAFMHCVCTRLKMS,-0.08 ± 0.61
7,KLMYLKLK,-0.038 ± 1.1
8,DCRFQIHVCDAYDK,inactive
9,REFMNFWHWRVCICAQE,-0.501 ± 0.38
10,FFRVRPFISYYWHTLLSVLW,-1.24 ± 1.1
11,SVSVYTASS,inactive
12,NSLVLFFSVGVLRL,1.37 ± 0.21
13,PWACIIYRLQGSPLINSRFN,1.04 ± 0.12
14,LGIVVVHWTPIIAGW,-1.11 ± 0.56
15,TAAPSEVMPIMALRPPKESS,-0.541 ± 0.79
16,TADLDIDGPVS,4.64 ± 0.094
17,VRFTLYGCWGLMFFTMVGR,inactive
18,KSVTVGADHNVDVGVAEMIR,1.79 ± 0.32
19,FQSDLMINIK,-0.496 ± 0.56
20,EDIIIVQFVV,0.424 ± 0.24
21,TNDLIRKFTLYMNQCDFNWS,-0.633 ± 1.1
22,FRFRSNSMSFHNADISLLSV,inactive
23,CSSTAVFTRLIKADIWVRSA,-1.35 ± 0.36
24,MITWCHIVALSNVGTVVSYN,inactive
25,LVSYNITFEYHNGKGCGEYG,3.63 ± 0.12

row,Substance,amyloid nucleation score
1,TFSQYTWEFIYN,3.68 ± 0.11
2,SFLIFRDVSFAGEGL,-1.21 ± 1.1
3,RHFHGGSSIAARAVTWAGQG,1.5 ± 0.44
4,YLYKCNM,inactive
5,HAMWCFGFIVLGGGNDIRIW,8.219 ± 0.045
6,FGKVRESCCLLAY,0.489 ± 0.3
7,AMFVLVGFEFY,1.47 ± 0.11
8,EFLYKLRLSLSMGCGHEELG,4.72 ± 0.061
9,CWRFVSCNTNYNWTMQGFYY,-1.38 ± 1.1
10,QYVEFPLMLTET,0.025 ± 0.79
11,LRLLISV,0.306 ± 0.25
12,YPQGVGSDLTS,0.953 ± 0.19
13,RKPMLFLRYF,inactive
14,SDKGYCSTFNMRQALWDYGQ,0.081 ± 1.1
15,AALFDLRWTHHKYFPNVKSG,0.057 ± 1.1
16,NRIFGTHLTFSGYS,-0.466 ± 0.5
17,GGGHMFFAGQ,-1.28 ± 1.1
18,KPIVITLLLSDCVRM,9.498 ± 0.026
19,FFSDVIRFWNKHTCKINLLR,-1.33 ± 1
20,YYSMGSTCGILDQDSLNVDQ,-1.34 ± 0.39
21,YGPWSCLI,inactive
22,CSVWRDLVAICLRD,inactive
23,SKDMCRRCCIRNLRRMSDSN,-0.443 ± 0.26
24,GERRTSLVVKYGRVAGYTYN,-0.273 ± 0.62
25,YKDHGCNDSWK,-0.572 ± 0.44

row,Substance,amyloid nucleation score
1,CIGYLMEIHVFSNDAKVYYL,6.24 ± 0.038
2,DNMGMRSGSSDLHREVWSHC,0.172 ± 0.35
3,YGSESVGGSQRSGNLSWGTG,0.257 ± 0.64
4,NASPFSHKYHEWFEVEGSSI,0.108 ± 0.65
5,SRGISKVTWP,0.276 ± 0.28
6,FHPPTGPPYINEMIGASTDR,-0.069 ± 0.27
7,DLSRTRGTEKASRSVWLRSM,3.97 ± 0.048
8,KLVTYVPSNKTNCHDDDGTY,-0.678 ± 0.56
9,HSLLSYMFSFQLTNMNCDLG,-0.117 ± 0.56
10,YGTKQVGKNRFFEHSYYYWP,inactive
11,SAFTNRYHLPSERVGHWCPV,0.224 ± 0.74
12,YLCGFNIVPHRYINFRVWTE,4.39 ± 0.11
13,RPRVVTQLFMYLNDCRGSPP,6.693 ± 0.055
14,NIKFHVFDLCDSPHGWLPDR,0.224 ± 0.56
15,FCGFMGTAPHMRPYVMPWLR,0.816 ± 0.46
16,YSDKHM,-1.27 ± 0.64
17,HVLTAGNHVGSVMNWHANEM,inactive
18,RRFEPKVRKKHQGLFLWYSV,0.028 ± 0.25
19,FYHISYGERKRGGLC,inactive
20,ERFPDCCLFNLDVFVSVLNI,5.022 ± 0.027
21,GRLLFAWLYLCDYGGYIMRV,-0.081 ± 1.1
22,LTGALREFPIYSGANDIWWR,-0.796 ± 0.44
23,EGGLYNCYADTPTKVW,-1.07 ± 0.74
24,KSTLANHFTVLIGDTADLHG,inactive
25,HCSWLYVLSYVSMSNICIGY,-0.876 ± 0.76

row,Substance,amyloid nucleation score
1,GWFGARRGMSIYRVHNWFVF,5.738 ± 0.048
2,CRMMI,0.591 ± 0.36
3,SNVDVFVTKMWRATQSCFRL,3.67 ± 0.12
4,SVSQPYSKSVGLRGRGKQGQ,0.737 ± 0.46
5,RKKMGFF,inactive
6,EFWPIITTSRRDMISNLDQG,-0.593 ± 0.43
7,QNYARL,-1.22 ± 1.1
8,VIAVCLVLVSSDVKIGTRMG,1.84 ± 0.16
9,LIVCWGMWFLQW,-1.74 ± 1.1
10,FTRYLTFNFRLETYYRGSHG,1.44 ± 0.18
11,DANTRGHSCRNCM,0.195 ± 0.76
12,LLWSTILMFWF,inactive
13,LWFLYSAVTFTR,-0.856 ± 0.76
14,GWVCRKRWVVLYMKICMIRR,-0.249 ± 0.21
15,FVWSFHCCMARWYGLGCSYM,1.1 ± 0.15
16,SFGDTSKRWLFAVGGCKCRL,0.371 ± 0.51
17,YLLMTKCVTVAERMGIMISC,-0.95 ± 1
18,ARCCFVPEEYSVV,1.22 ± 0.25
19,NYGVFTSIHVCYDVINVVRV,-0.661 ± 1.1
20,TSAENRLMMAEARKYCVRSF,3.66 ± 0.087
21,RWSFRLSTAIQGQPWSTPGD,5.95 ± 0.06
22,VGRGASRNFSCFSLVKFREK,3 ± 0.062
23,VCSNCNMDVTSYQASCKAYL,0.783 ± 0.53
24,ARVIFAVSVLEFRVGYSQGA,3.87 ± 0.086
25,FMFLEKRVGNVGRYFHEYIG,inactive

row,Substance,amyloid nucleation score
1,KTCSDMWYAVRHSNHETSV,1.34 ± 0.52
2,VVSVCLLGHNDKVLSYAQLC,0.071 ± 0.51
3,LPHLCCIIY,2.56 ± 0.066
4,YACFRPFSDTRRRCGFSTL,inactive
5,CSCQAVLLLASSRPAIKVRC,1.86 ± 0.31
6,PRTISSSRLMWRYVSYLVIV,inactive
7,YYVTNSGSWLDACHGLYKTG,inactive
8,FQPFVDLLDVVHRELGSLTR,4.76 ± 0.067
9,VNIDGRDRDNFVNGRSIMLR,inactive
10,LDPNSYHKSRWFNMMSFIRV,0.611 ± 0.81
11,RFVVSEGLIGVVGSSKLILY,0.106 ± 1
12,TVFNR,0.236 ± 0.3
13,TSVCM,3.89 ± 0.1
14,FSCWGFMVFRMVGDMLSMKD,-1.58 ± 0.49
15,LILDILSRGSAYYDCTRMKG,inactive
16,ARNSVKHSFFQVRRLHGSWD,0.367 ± 0.38
17,IQGFGLKLVEIYWEARQLVH,inactive
18,FASALNYTLYWSSSLTLFAL,2.54 ± 0.067
19,FTFTRQSAGAHRYDIFVPRT,0.17 ± 0.41
20,IAKFTVMDFYGMVVAYSNCR,1.12 ± 0.42
21,KFKFKESGFEVVSLGGMVTP,inactive
